{"source": "patent US20220127585A1", "about": "(UNIVERSITY OF SOUTH CAROLINA, published 2022)", "key": {"B-Raf kinase [1]": {"target": "T1, B-Raf kinase (UniProt P15056 448-723, limits assumed)", "T1 sequence (P15056 448-723 limits assumed)": "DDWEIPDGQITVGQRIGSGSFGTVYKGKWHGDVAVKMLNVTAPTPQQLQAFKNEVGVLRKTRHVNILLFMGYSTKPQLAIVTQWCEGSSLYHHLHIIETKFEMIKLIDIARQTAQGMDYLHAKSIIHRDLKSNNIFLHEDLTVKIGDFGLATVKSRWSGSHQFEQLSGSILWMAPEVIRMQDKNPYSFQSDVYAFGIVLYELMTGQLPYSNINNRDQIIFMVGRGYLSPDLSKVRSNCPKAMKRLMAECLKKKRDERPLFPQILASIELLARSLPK", "assay": "binding affinity, Table 3 (method not given; the Methods describe fluorescence titration)"}, "B-Raf kinase [2]": {"target": "T1, B-Raf kinase", "assay": "direct binding affinity (Kd; values in FIG. 14)"}, "B-Raf kinase [3]": {"target": "T1, B-Raf kinase", "assay": "intrinsic tryptophan fluorescence (ITF), column head 'Kd (ITF) (µM)'", "protocol": "Fluorescence intensity was measured with a Hitachi F-2500 Fluorescence Spectrophotometer. A 1.6 mL of protein solution (0.5 μM) was placed in a cuvette and equilibrated at 15° C. for 1 hour. After equilibration, small increments (2-15 μL) of the ligand solution were injected in the cuvette. The experiments were performed in 20 mM HEPES buffer (pH 7.5), 10 mM MgCl2, 30 mM NaCl. […] The slits were set at 10 and 10 nm in the excitation and emission respectively. To determine dilution effect of B-Raf (due to ligand addition) and any fluorescence effect by unbound ligand, a blank sample containing Trp with the same fluorescence signal was titrated with ligand additions as described above. The sample absorbance was kept below 0.1 to minimize the inner filter effect."}}, "note": "Bridges are numbered along the chain shown (N, C = ends). Where no end group is shown, it is not given here. [ ]: non-standard residue; d: D form. The star is where a group is joined. C4 = C-terminal cap: phenethyl group with a meta isopentyloxy group, CC(C)CCOc1cccc(CCN*)c1; NMeR = CN[C@@H](CCCNC(=N)N)C(=O)O; PhAc = O=C(Cc1ccccc1)*", "data": [{"binder": "KRHVAE (lactam 1-6)", "note": "[SEQ ID NO: 48 (KRHVAE)]", "values": [{"measurement": "Kd", "setting": "B-Raf kinase [1]", "value": 300, "unit": "nM"}]}, {"binder": "K[NMeR][dA]PAE (also: cyclic, closure not given here)", "note": "[SEQ ID NO: 64 (K-MeR-a-PAE)]", "values": [{"measurement": "fold increase in direct binding affinity compared to SEQ ID NO: 1", "setting": "B-Raf kinase [2]", "value": 225, "unit": "fold"}, {"measurement": "Kd", "setting": "B-Raf kinase [3]", "value": 17, "unit": "nM"}]}, {"binder": "PhAc-TRHVNI-C4 (SMILES CC[C@H](C)[C@H](NC(=O)[C@H](CC(N)=O)NC(=O)[C@@H](NC(=O)[C@H](Cc1c[nH]cn1)NC(=O)[C@H](CCCNC(=N)N)NC(=O)[C@@H](NC(=O)Cc1ccccc1)[C@@H](C)O)C(C)C)C(=O)NCCc1cccc(OCCC(C)C)c1)", "note": "[SEQ ID NO: 63 (TRHVNI) with N-Cap N2 and C-Cap C4]", "values": [{"measurement": "Kd", "setting": "B-Raf kinase [3]", "value": 280, "unit": "nM"}]}]}
